Results from the supplement of paper PMC10266784.

B1: library; numbered along this chain (parent)
chain: MAAAAAAAAEQQSSNGPVKKSMREKAVERRSVNKEHNSNFKAGYIPIDEDRLHKTGLRGRKGNLAICVIILLFILAVINLIITLVIWAVIRIGPNGCDSMEFHESGLLRFKQVSDMGVIHPLYKSTVGGRRNENLVITGNNQPIVFQQGTTKLSVENNKTSITSDIGMQFFDPRTQNILFSTDYETHEFHLPSGVKSLNVQKASTERITSNATSDLNIKVDGRAIVRGNEGVFIMGKTIEFHMGGNMELKAENSIILNGSVMVSTTRLPSSSSGDQLGSGDWVRYKLCMCADGTLFKVQVTSQNMGCQISDNPCGNTH

Variants of: B1
Experiment: SGCB cell-surface expression functional score (HA stain, bin4 vs bin1, normalised to synonymous) (log10 ratio); higher = more cell-surface SGCB (functional)
How it was run: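 Codon-saturation libraries of HA-tagged, YFP-fused human beta-sarcoglycan were lentivirally transduced at MOI <0.1 into HEK293 cells stably expressing alpha-, gamma- and delta-sarcoglycan. YFP-positive cells were sorted after 72 hours, grown 5–7 days, stained on ice with Alexa Fluor 647 anti-HA, fixed, sorted into four 5% intensity bins and amplicon-sequenced. The functional score is the log ratio of highest-bin to lowest-bin variant frequency, taken as the median over codons and duplicate transductions. Synonymous variants were scaled per section to mean 0, SD 0.5.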

In order of rising “SGCB cell-surface expression functional score (log10)” value:
1. MAAAAAAAAEQQSSNGPVKKSMREKAVERRSVNKEHNSNFKAGYIPIDEDRLHKTGLRGRKGNLAICVIILLFILAVINLIITLVIWAVIRIGPNGCDSMEFHESGLLRFKQVSDMGVIHPLYKSTVGGRRNENLVITGNNQPIVFQQGTTKLSVENNKTSITSDIGMQFFIPRTQNILFSTDYETHEFHLPSGVKSLNVQKASTERITSNATSDLNIKVDGRAIVRGNEGVFIMGKTIEFHMGGNMELKAENSIILNGSVMVSTTRLPSSSSGDQLGSGDWVRYKLCMCADGTLFKVQVTSQNMGCQISDNPCGNTH [D172I]  -1.04
2. MAAAAAAAAEQQSSNGPVKKSMREKAVERRSVNKEHNSNFKAGYIPIDEDRLHKTGLRGRKGNLAICVIILLFILAVINLIITLVIWAVIRIGPNGCDSMEFHESGLLRFKQVSDMGVIHPLYKSTVGGRRNENLVITGNNQPIVFQQGTTKLSVENNKTSITSDIGMQFFDDRTQNILFSTDYETHEFHLPSGVKSLNVQKASTERITSNATSDLNIKVDGRAIVRGNEGVFIMGKTIEFHMGGNMELKAENSIILNGSVMVSTTRLPSSSSGDQLGSGDWVRYKLCMCADGTLFKVQVTSQNMGCQISDNPCGNTH [P173D]  -0.84
3. MAAAAAAAAEQQSSNGPVKKSMREKAVERRSVNKEHNSNFKAGYIPIDEDRLHKTGLRGRKGNLAICVIILLFILAVINLIITLVIWAVIRIGPNGCDSMEFHESGLLRFKQVSDMGVIHPLYKSTVGGRRNENLVITGNNQPIVFQQGTTKLSVENNKTSITSDIGMQFFDARTQNILFSTDYETHEFHLPSGVKSLNVQKASTERITSNATSDLNIKVDGRAIVRGNEGVFIMGKTIEFHMGGNMELKAENSIILNGSVMVSTTRLPSSSSGDQLGSGDWVRYKLCMCADGTLFKVQVTSQNMGCQISDNPCGNTH [P173A]  -0.38
4. MAAAAAAAAEQQSSNGPVKKSMREKAVERRSVNKEHNSNFKAGYIPIDEDRLHKTGLRGRKGNLAICVIILLFILAVINLIITLVIWAVIRIGPNGCDSMEFHESGLLRFKQVSDMGVIHPLYKSTVGGRRNENLVITGNNQPIVFQQGTTKLSVENNKTSITSDIGMQFFDCRTQNILFSTDYETHEFHLPSGVKSLNVQKASTERITSNATSDLNIKVDGRAIVRGNEGVFIMGKTIEFHMGGNMELKAENSIILNGSVMVSTTRLPSSSSGDQLGSGDWVRYKLCMCADGTLFKVQVTSQNMGCQISDNPCGNTH [P173C]  -0.22
5. MAAAAAAAAEQQSSNGPVKKSMREKAVERRSVNKEHNSNFKAGYIPIDEDRLHKTGLRGRKGNLAICVIILLFILAVINLIITLVIWAVIRIGPNGCDSMEFHESGLLRFKQVSDMGVIHPLYKSTVGGRRNENLVITGNNQPIVFQQGTTKLSVENNKTSITSDIGMQFFNPRTQNILFSTDYETHEFHLPSGVKSLNVQKASTERITSNATSDLNIKVDGRAIVRGNEGVFIMGKTIEFHMGGNMELKAENSIILNGSVMVSTTRLPSSSSGDQLGSGDWVRYKLCMCADGTLFKVQVTSQNMGCQISDNPCGNTH [D172N]  -0.02
6. MAAAAAAAAEQQSSNGPVKKSMREKAVERRSVNKEHNSNFKAGYIPIDEDRLHKTGLRGRKGNLAICVIILLFILAVINLIITLVIWAVIRIGPNGCDSMEFHESGLLRFKQVSDMGVIHPLYKSTVGGRRNENLVITGNNQPIVFQQGTTKLSVENNKTSITSDIGMQFFDERTQNILFSTDYETHEFHLPSGVKSLNVQKASTERITSNATSDLNIKVDGRAIVRGNEGVFIMGKTIEFHMGGNMELKAENSIILNGSVMVSTTRLPSSSSGDQLGSGDWVRYKLCMCADGTLFKVQVTSQNMGCQISDNPCGNTH [P173E]  0
7. MAAAAAAAAEQQSSNGPVKKSMREKAVERRSVNKEHNSNFKAGYIPIDEDRLHKTGLRGRKGNLAICVIILLFILAVINLIITLVIWAVIRIGPNGCDSMEFHESGLLRFKQVSDMGVIHPLYKSTVGGRRNENLVITGNNQPIVFQQGTTKLSVENNKTSITSDIGMQFFGPRTQNILFSTDYETHEFHLPSGVKSLNVQKASTERITSNATSDLNIKVDGRAIVRGNEGVFIMGKTIEFHMGGNMELKAENSIILNGSVMVSTTRLPSSSSGDQLGSGDWVRYKLCMCADGTLFKVQVTSQNMGCQISDNPCGNTH [D172G]  0.2
8. MAAAAAAAAEQQSSNGPVKKSMREKAVERRSVNKEHNSNFKAGYIPIDEDRLHKTGLRGRKGNLAICVIILLFILAVINLIITLVIWAVIRIGPNGCDSMEFHESGLLRFKQVSDMGVIHPLYKSTVGGRRNENLVITGNNQPIVFQQGTTKLSVENNKTSITSDIGMQFFHPRTQNILFSTDYETHEFHLPSGVKSLNVQKASTERITSNATSDLNIKVDGRAIVRGNEGVFIMGKTIEFHMGGNMELKAENSIILNGSVMVSTTRLPSSSSGDQLGSGDWVRYKLCMCADGTLFKVQVTSQNMGCQISDNPCGNTH [D172H]  0.44
9. MAAAAAAAAEQQSSNGPVKKSMREKAVERRSVNKEHNSNFKAGYIPIDEDRLHKTGLRGRKGNLAICVIILLFILAVINLIITLVIWAVIRIGPNGCDSMEFHESGLLRFKQVSDMGVIHPLYKSTVGGRRNENLVITGNNQPIVFQQGTTKLSVENNKTSITSDIGMQFFLPRTQNILFSTDYETHEFHLPSGVKSLNVQKASTERITSNATSDLNIKVDGRAIVRGNEGVFIMGKTIEFHMGGNMELKAENSIILNGSVMVSTTRLPSSSSGDQLGSGDWVRYKLCMCADGTLFKVQVTSQNMGCQISDNPCGNTH [D172L]  0.77
